Laboratory results: publication PMC10244696, “Thioredoxin TRXo1 is involved in ABA perception via PYR1 redox regulation” (Redox Biology, 2023)

T1: PYR1 in Arabidopsis leaf extracts (Arabidopsis thaliana (endogenous in Col-0 leaves)), O49686
T1 chain: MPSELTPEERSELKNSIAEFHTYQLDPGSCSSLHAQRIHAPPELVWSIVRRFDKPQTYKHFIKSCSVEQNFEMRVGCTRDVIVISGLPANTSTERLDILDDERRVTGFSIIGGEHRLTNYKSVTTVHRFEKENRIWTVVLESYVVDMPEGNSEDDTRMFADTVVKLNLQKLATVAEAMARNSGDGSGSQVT

T2: recombinant HisAtPYR1 (Arabidopsis thaliana), O49686
T2 chain: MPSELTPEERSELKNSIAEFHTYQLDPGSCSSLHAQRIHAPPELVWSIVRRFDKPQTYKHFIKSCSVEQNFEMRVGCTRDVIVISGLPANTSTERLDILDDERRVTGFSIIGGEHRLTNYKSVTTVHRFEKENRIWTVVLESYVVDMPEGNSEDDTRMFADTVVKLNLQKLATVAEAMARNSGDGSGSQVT


Legend:
[1] = target: T1, PYR1 in Arabidopsis leaf extracts …; assay: non-reducing SDS-PAGE and Western blot of oligomeric forms; leaf extracts of Arabidopsis, anti-PYR1; wild type extract without blocking or alkylating agent, also with 50 mM DTT or 4 mM H2O2 added; WT, KO and OEX Attrxo1 plants with or without 10 μM ABA for 48 h (extracts with 5 mM NEM); conditions: remark: other sources report otherwise
[2] = target: the molecule itself; assay: SDS-PAGE and Western blot of oligomeric forms; recombinant HisAtPYR1 or its Cys mutants in 20 mM Tris-HCl pH 7.9, untreated, with 4 mM H2O2, or 2 mM DTT and then 4 mM H2O2 (30 min, room temperature); 2.5 μg on SDS-PAGE, anti-AtPYR1
[3] = target: T2, recombinant HisAtPYR1 (Arabidopsis …); assay: as above; conditions: remark: other sources report otherwise

Binder	amount of dimers, fold of PYR1 [2] [fold]	further results
PYR1 in Arabidopsis leaf extracts, O49686 1-191 (receptor) MPSELTPEERSELKNSIAEFHTYQLDPGSCSSLHAQRIHAPPELVWSIVRRFDKPQTYKHFIKSCSVEQNFEMRVGCTRDVIVISGLPANTSTERLDILDDERRVTGFSIIGGEHRLTNYKSVTTVHRFEKENRIWTVVLESYVVDMPEGNSEDDTRMFADTVVKLNLQKLATVAEAMARNSGDGSGSQVT	–	stoichiometry N [1]: 2
HisAtPYR1C65S (receptor, Arabidopsis thaliana, UniProt O49686 1-191, looked up, PYR1 of Arabidopsis thaliana (At4g17870) with Cys65 replaced by Ser; cloned in NcoI/EcoRI of pETM11; source: E. coli BL21, purified (Ni-NTA agarose)) MPSELTPEERSELKNSIAEFHTYQLDPGSCSSLHAQRIHAPPELVWSIVRRFDKPQTYKHFIKSSSVEQNFEMRVGCTRDVIVISGLPANTSTERLDILDDERRVTGFSIIGGEHRLTNYKSVTTVHRFEKENRIWTVVLESYVVDMPEGNSEDDTRMFADTVVKLNLQKLATVAEAMARNSGDGSGSQVT	2.3	–
HisAtPYR1C30S (receptor, Arabidopsis thaliana, UniProt O49686 1-191, looked up, PYR1 of Arabidopsis thaliana (At4g17870) with Cys30 replaced by Ser; cloned in NcoI/EcoRI of pETM11; source: E. coli BL21, purified (Ni-NTA agarose)) MPSELTPEERSELKNSIAEFHTYQLDPGSSSSLHAQRIHAPPELVWSIVRRFDKPQTYKHFIKSCSVEQNFEMRVGCTRDVIVISGLPANTSTERLDILDDERRVTGFSIIGGEHRLTNYKSVTTVHRFEKENRIWTVVLESYVVDMPEGNSEDDTRMFADTVVKLNLQKLATVAEAMARNSGDGSGSQVT	0.3	–
recombinant HisAtPYR1, O49686 1-191 (receptor) MPSELTPEERSELKNSIAEFHTYQLDPGSCSSLHAQRIHAPPELVWSIVRRFDKPQTYKHFIKSCSVEQNFEMRVGCTRDVIVISGLPANTSTERLDILDDERRVTGFSIIGGEHRLTNYKSVTTVHRFEKENRIWTVVLESYVVDMPEGNSEDDTRMFADTVVKLNLQKLATVAEAMARNSGDGSGSQVT	–	stoichiometry N [3]: 2
HisAtPYR1C77S (receptor, Arabidopsis thaliana, UniProt O49686 1-191, looked up, PYR1 of Arabidopsis thaliana (At4g17870) with Cys77 replaced by Ser; cloned in NcoI/EcoRI of pETM11; source: E. coli BL21, purified (Ni-NTA agarose)) MPSELTPEERSELKNSIAEFHTYQLDPGSCSSLHAQRIHAPPELVWSIVRRFDKPQTYKHFIKSCSVEQNFEMRVGSTRDVIVISGLPANTSTERLDILDDERRVTGFSIIGGEHRLTNYKSVTTVHRFEKENRIWTVVLESYVVDMPEGNSEDDTRMFADTVVKLNLQKLATVAEAMARNSGDGSGSQVT	0.6	–
